Test results published in patent publication US20090022738A1 (MICROMET, published 2009).
Numbering of substitutions follows the chain as printed.

T1: Epithelial cell adhesion molecule (EpCAM) (human, UniProt P16422 24-314)
T1 construct: whole, on cells; also called 17-1A antigen; KSA
T1 sequence (looked up): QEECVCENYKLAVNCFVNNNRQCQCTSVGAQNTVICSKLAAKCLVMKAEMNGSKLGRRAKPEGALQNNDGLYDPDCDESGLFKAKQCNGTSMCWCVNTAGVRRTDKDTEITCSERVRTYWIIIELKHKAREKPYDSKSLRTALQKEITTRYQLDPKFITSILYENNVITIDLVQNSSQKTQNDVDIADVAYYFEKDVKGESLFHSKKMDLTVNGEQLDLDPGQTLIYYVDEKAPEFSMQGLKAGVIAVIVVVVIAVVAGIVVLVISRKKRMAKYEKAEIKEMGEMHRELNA

T2: CD19 (human, UniProt P15391 20-556)
T2 construct: whole, on cells; also called CD19 on NALM-6 cells
T2 sequence (looked up): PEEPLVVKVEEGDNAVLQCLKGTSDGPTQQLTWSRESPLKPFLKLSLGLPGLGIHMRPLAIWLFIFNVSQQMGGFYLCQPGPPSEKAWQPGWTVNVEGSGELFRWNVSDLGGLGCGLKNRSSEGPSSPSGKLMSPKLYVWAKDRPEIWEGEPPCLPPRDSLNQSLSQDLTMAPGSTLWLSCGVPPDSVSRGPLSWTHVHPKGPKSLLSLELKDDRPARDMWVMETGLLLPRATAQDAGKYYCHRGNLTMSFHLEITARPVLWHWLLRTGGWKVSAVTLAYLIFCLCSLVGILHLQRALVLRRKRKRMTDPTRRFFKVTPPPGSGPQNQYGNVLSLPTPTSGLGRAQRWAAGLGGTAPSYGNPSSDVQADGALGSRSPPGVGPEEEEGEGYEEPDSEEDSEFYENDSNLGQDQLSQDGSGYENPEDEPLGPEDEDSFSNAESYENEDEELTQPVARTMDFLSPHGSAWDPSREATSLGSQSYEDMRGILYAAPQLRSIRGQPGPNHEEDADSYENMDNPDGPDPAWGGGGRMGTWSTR

B1: deimmunized anti-CD3 (VH5/VL2)×5-10 (VL-VH) (SEQ ID NO.:39) (bispecific antibody)
chain: DVQLVQSGAEVKKPGASVKVSCKASGYTFTRYTMHWVRQAPGQGLEWIGYINPSRGYTNYADSVKGRFTITTDKSTSTAYMELSSLRSEDTATYYCARYYDDHYCLDYWGQGTTVTVSSGEGTSTGSGGSGGSGGADDIVLTQSPATLSLSPGERATLSCRASQSVSYMNWYQQKPGKAPKRWIYDTSKVASGVPARFSGSGSGTDYSLTINSLEAEDAATYYCQQWSSNPLTFGGGTKVEIKSGGGGSELVMTQSPSSLTVTAGEKVTMSCKSSQSLLNSGNQKNYLTWYQQKPGQPPKLLIYWASTRESGVPDRFTGSGSGTDFTLTISSVQAEDLAVYYCQNDYSYPLTFGAGTKLEIKGGGGSGGGGSGGGGSEVQLLEQSGAELVRPGTSVKISCKASGYAFTNYWLGWVKQRPGHGLEWIGDIFPGSGNIHYNEKFKGKATLTADKSSSTAYMQLSSLTFEDSAVYFCARLRNWDEPMDYWGQGTTVTVSS
notes: Bispecific single chain, VH(CD3)-VL(CD3)-VL(EpCAM)-VH(EpCAM); detected by anti-His; also called anti-CD3 (VH5/VL2)x5-10 (VL-VH)
B2: 5-10×anti-CD3 (VH5/VL2) (SEQ ID NO.:63) (bispecific antibody)
chain: ELVMTQSPSSLTVTAGEKVTMSCKSSQSLLNSGNQKNYLTWYQQKPGQPPKLLIYWASTRESGVPDRFTGSGSGTDFTLTISSVQAEDLAVYYCQNDYSYPLTFGAGTKLEIKGGGGSGGGGSGGGGSEVQLLEQSGAELVRPGTSVKISCKASGYAFTNYWLGWVKQRPGHGLEWIGDIFPGSGNIHYNEKFKGKATLTADKSSSTAYMQLSSLTFEDSAVYFCARLRNWDEPMDYWGQGTTVTVSSGGGGSDVQLVQSGAEVKKPGASVKVSCKASGYTFTRYTMHWVRQAPGQGLEWIGYINPSRGYTNYADSVKGRFTITTDKSTSTAYMELSSLRSEDTATYYCARYYDDHYCLDYWGQGTTVTVSSGEGTSTGSGGSGGSGGADDIVLTQSPATLSLSPGERATLSCRASQSVSYMNWYQQKPGKAPKRWIYDTSKVASGVPARFSGSGSGTDYSLTINSLEAEDAATYYCQQWSSNPLTFGGGTKVEIK
notes: Bispecific single chain with anti-EpCAM at the N-terminus; tested as CHO culture supernatant; detected by anti-His; also called pEF-DHFR-5-10×anti-CD3 (VH5/VL2); Nr.54
B3: deimmunized anti-CD3 (VH5/VL2)×4-7 (VL-VH) (SEQ ID NO.:35) (bispecific antibody)
chain: DVQLVQSGAEVKKPGASVKVSCKASGYTFTRYTMHWVRQAPGQGLEWIGYINPSRGYTNYADSVKGRFTITTDKSTSTAYMELSSLRSEDTATYYCARYYDDHYCLDYWGQGTTVTVSSGEGTSTGSGGSGGSGGADDIVLTQSPATLSLSPGERATLSCRASQSVSYMNWYQQKPGKAPKRWIYDTSKVASGVPARFSGSGSGTDYSLTINSLEAEDAATYYCQQWSSNPLTFGGGTKVEIKSGGGGSELVMTQTPLSLPVSLGDQASISCRSSQSLVHSNGNTYLHWYLQKPGQSPKLLIYKVSNRFSGVPDRFSGSGSGTDFTLKISRVEAEDLGVYFCSQSTHVPYTFGGGTKLEIKGGGGSGGGGSGGGGSEVQLLEQSGAELARPGASVKLSCKASGYTFTNYGLSWVKQRPGQVLEWIGEVYPRIGNAYYNEKFKGKATLTADKSSSTASMELRSLTSEDSAVYFCARRGSYDTNYDWYFDVWGQGTTVTVSS
notes: Bispecific single chain, VH(CD3)-VL(CD3)-VL(EpCAM)-VH(EpCAM); detected by anti-His; also called anti-CD3 (VH5/VL2)x4-7 (VL-VH)
B4: anti-CD19×anti-CD3 (VH5/VL1) (SEQ ID NO.:190) (bispecific antibody)
chain: DIQLTQSPASLAVSLGQRATISCKASQSVDYDGDSYLNWYQQIPGQPPKLLIYDASNLVSGIPPRFSGSGSGTDFTLNIHPVEKVDAATYHCQQSTEDPWTFGGGTKLEIKGGGGSGGGGSGGGGSQVQLQQSGAELVRPGSSVKISCKASGYAFSSYWMNWVKQRPGQGLEWIGQIWPGDGDTNYNGKFKGKATLTADESSSTAYMQLSSLASEDSAVYFCARRETTTVGRYYYAMDYWGQGTTVTVSSGGGGSDVQLVQSGAEVKKPGASVKVSCKASGYTFTRYTMHWVRQAPGQGLEWIGYINPSRGYTNYADSVKGRFTITTDKSTSTAYMELSSLRSEDTATYYCARYYDDHYCLDYWGQGTTVTVSSGEGTSTGSGGSGGSGGADDIQMTQSPSSLSASVGDRVTITCRASQSVSYMNWYQQKPGKAPKRWIYDTSKVASGVPARFSGSGSGTDYSLTINSLEAEDAATYYCQQWSSNPLTFGGGTKVEIK
notes: As m4: bispecific single chain, His-tagged; also called pEF anti-CD19×anti-CD3 (VH5/VL1)
B5: anti-CD19×anti-CD3 (VH7/VL1) (SEQ ID NO.:196) (bispecific antibody)
chain: B4 chain with A316N, D317Q, S318K, V319F, G321D, F323V, T348V
notes: As m4: bispecific single chain, His-tagged; also called pEF anti-CD19×anti-CD3 (VH7/VL1)
B6: anti-CD19×anti-CD3 (VH7/VL2) (SEQ ID NO.:198) (bispecific antibody)
chain: DIQLTQSPASLAVSLGQRATISCKASQSVDYDGDSYLNWYQQIPGQPPKLLIYDASNLVSGIPPRFSGSGSGTDFTLNIHPVEKVDAATYHCQQSTEDPWTFGGGTKLEIKGGGGSGGGGSGGGGSQVQLQQSGAELVRPGSSVKISCKASGYAFSSYWMNWVKQRPGQGLEWIGQIWPGDGDTNYNGKFKGKATLTADESSSTAYMQLSSLASEDSAVYFCARRETTTVGRYYYAMDYWGQGTTVTVSSGGGGSDVQLVQSGAEVKKPGASVKVSCKASGYTFTRYTMHWVRQAPGQGLEWIGYINPSRGYTNYNQKFKDRVTITTDKSTSTAYMELSSLRSEDTAVYYCARYYDDHYCLDYWGQGTTVTVSSGEGTSTGSGGSGGSGGADDIVLTQSPATLSLSPGERATLSCRASQSVSYMNWYQQKPGKAPKRWIYDTSKVASGVPARFSGSGSGTDYSLTINSLEAEDAATYYCQQWSSNPLTFGGGTKVEIK
notes: As m4: bispecific single chain, His-tagged; all other places say VH7/VL2
B7: anti-CD19×anti-CD3 (VH7/VL3) (SEQ ID NO.:200) (bispecific antibody)
chain: B6 chain with S414T, Q419S
notes: As m4: bispecific single chain, His-tagged; also called pEF anti-CD19×anti-CD3 (VH7/VL3); anti-CD3 (VH7/VK3)

Tests used:
human CD3 [1] = biological target: T3, human CD3 (human, UniProt P07766 23-207; P04234 22-171; P09693 23-182); assay: FACS, 10 µg/ml on Jurkat cells
T3 construct: whole, on cells; also called CD3 antigen; human CD3 complex
Description: (§1) Binding of the bispecific single chain molecules with anti-CD3 part in N-terminal orientation to EpCAM and CD3 were confirmed by FACS analyses. For that purpose the EpCAM positive human gastric cancer cell line Kato III (ATCC HTB-103) was used.
(§2) Cells were cultured according to the recommendations of the supplier and a number of 200000 cells was incubated with 10 μg/ml of the construct in 50 μl PBS with 2% FCS (fetal calf serum). The binding of the construct was detected with an anti-His antibody (Penta-His Antibody, obtained from Qiagen, Hilden, FRG) at 2 μg/ml in PBS with 2% FCS. […] The samples were measured on a FACSscan (BD biosciences, Heidelberg, FRG).

[2] = biological target: T1, Epithelial cell adhesion molecule …; assay: FACS, 10 µg/ml on EpCAM positive Kato III cells
Description: as §1, §2

human CD3 [3] = biological target: T3, human CD3; assay: FACS, culture supernatant on Jurkat cells; anti-His detection
Description: (§3) 250000 Jurkat cells (for CD3 binding) and Kato cells (for EpCAM binding) were independently incubated with cell culture supernatants (50 μl) containing the bispecific construct (pEF-DHFR-3-1×anti-CD3 (VH5/VL2) (Nr.50, SEQ ID NO.: 48) and pEF-DHFR-5-10×anti-CD3 (VH5/VL2) (Nr.54) (SEQ ID NO.:62), respectively) for 45 min. at 4° C. Thereafter, the cells were washed twice in FACS buffer (phosphate-buffered saline containing 1% fetal calf serum (FCS) and 0.05% sodium azide) and incubated with mouse anti-His antibody (Dianova, DIA910) for 60 min. at 4° C. Washing steps were performed as above.
(§4) The cells were finally incubated either with goat anti-mouse Ig-FITC-conjugated antibody (BD 550003) or with anti-mouse IgG conjugated with PE (Sigma, P8547). After washing steps, 10000 events were analysed using FACS Calibur (B&D).

[4] = biological target: T1, Epithelial cell adhesion molecule …; assay: FACS, culture supernatant on Kato cells (for EpCAM binding); anti-His detection
Description: as §3, §4

CD19 [5] = biological target: T2, CD19; assay: FACS, purified constructs at 1 and 5 µg/ml on CD19-positive NALM cells
Description: Binding was measured by a FACS-based assay using CD3 enriched PBMCs (A) or CD19-positive NALM-cells (B). A secondary antibody with CD3 positive cells was used as a negative control in (A) and a secondary antibody with CD19 positive cells was used as a negative control in (B). Constructs anti-CD19×anti-CD3 and anti-EpCAM (M79)×anti-CD3 were used as controls. Assay was carried out with concentrations of 1 μg/ml and 5 μg/ml. MFI indicates mean fluorescence intensity.
(§5) In order to analyze the binding efficacy of the deimmunized constructs to CD3 and CD19 a FACS-based assay was performed. Initially, crude supernatants were tested for binding on CD3-enriched PBMCs or CD19-positive NALM-6 cells. Cells were incubated with non-diluted supernatants for 30 minutes at 8° C. Upon two wash steps the cells were labeled with an anti-His antibody (Qiagen) under the same conditions. After additional wash steps binding of the constructs was detected with a FITC-conjugated sheep anti-mouse antibody (Sigma). Cells were analyzed with a FACS Calibur cytometer (B&D). As controls supernatants of anti-CD19×anti-CD3 and GFP-transfected cells were included. […] The positive control, which was a non-deimmunized anti-CD19×anti-CD3 construct reached a MFI of around 60 showing that the deimmunized constructs comprising anti-CD3 (VH5/VL1) (SEQ ID NO.:190), anti-CD3 (VH5/VL2) (SEQ ID NO.:192), anti-CD3 (VH5/VL3) (SEQ ID NO.:194), anti-CD3 (VH7/VL1) (SEQ ID NO.:196), anti-CD3 (VH7/VL2) (SEQ ID NO.:198) and anti-CD3 (VH7/VL3) (SEQ ID NO.:200) bound CD3 with extremely high efficacy.

human CD3 [6] = biological target: T3, human CD3; assay: FACS, purified construct at 0.5 µg/ml as printed, on CD3 positive cells
CD19 [7] = biological target: T2, CD19; assay: FACS, crude supernatant on CD19-positive NALM-6 cells; negative control MFI ca. 3
Description: as §5
The FACS-based binding assay was also carried out for CD19. In this experiment CD19 and a secondary antibody was as a negative control. In this experiment, all assayed constructs achieved a MFI of at least 80 while the MFI of the negative control was ca. 3.

human CD3 [8] = biological target: T3, human CD3; assay: FACS, non-diluted crude supernatant on CD3-enriched PBMCs; anti-His + FITC anti-mouse
Description: as §5

Binder	binding result (human CD3 [1])	binding result [2]	binding result (human CD3 [3])	binding result [4]	MFI (CD19 [5]) [MFI]	MFI (human CD3 [6]) [MFI]	MFI (CD19 [7]) [MFI]	MFI (human CD3 [8]) [MFI]	fold over the negative control (secondary antibody only, MFI ca. 3.5) (human CD3 [8]) [fold]
B1	binds	binds	–	–	–	–	–	–	–
B2	–	–	binds	binds	–	–	–	–	–
B3	binds	binds	–	–	–	–	–	–	–
B4	–	–	–	–	~200	≥ 40	≥ 80	≥ 90	~25
B5	–	–	–	–	~200	≥ 40	≥ 80	≥ 90	~25
B6	–	–	–	–	~200	25	≥ 80	≥ 90	~25
B7	–	–	–	–	~200	≥ 40	≥ 80	≥ 90	~25
